Experimental data taken from patent US20080050387A1 (published 2008).

Columns and labels:
[1] = target: T1, testicular receptor 4 (TR4) (Homo sapiens (Human), UniProt P49116 1-596, limits assumed); assay: CytoTrap Sos yeast two-hybrid, growth of cdc25H on SD/Gal(-LU) at 37° C
T1 construct: hSos fusion (pSos-TR4) in yeast; also called pSos-TR4
T1 sequence: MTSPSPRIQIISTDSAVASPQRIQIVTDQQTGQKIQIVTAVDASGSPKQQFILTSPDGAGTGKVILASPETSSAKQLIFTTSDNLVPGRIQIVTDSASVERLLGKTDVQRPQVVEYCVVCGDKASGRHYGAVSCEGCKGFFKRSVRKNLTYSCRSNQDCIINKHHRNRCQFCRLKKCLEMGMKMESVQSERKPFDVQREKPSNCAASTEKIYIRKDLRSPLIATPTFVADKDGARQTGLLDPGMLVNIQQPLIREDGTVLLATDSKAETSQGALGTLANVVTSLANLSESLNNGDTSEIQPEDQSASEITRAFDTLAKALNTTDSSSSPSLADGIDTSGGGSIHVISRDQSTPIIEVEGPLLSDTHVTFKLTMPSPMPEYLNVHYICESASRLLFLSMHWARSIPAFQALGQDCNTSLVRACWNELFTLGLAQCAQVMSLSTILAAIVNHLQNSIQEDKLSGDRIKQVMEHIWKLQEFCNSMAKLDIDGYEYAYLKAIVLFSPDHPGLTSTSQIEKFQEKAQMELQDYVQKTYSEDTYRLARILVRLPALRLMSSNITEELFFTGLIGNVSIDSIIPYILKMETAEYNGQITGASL
Description: (§1) The bait and library constructs were co-transformed into yeast strain cdc25H. […] Only the clones that grow out on SD/Gal (−LU) plates but not on SD/Glu (−LU) plates at 37° C. are interaction positive ones.

ARA70 = target: T2, ARA70 (UniProt Q13772 1-614, limits assumed); assay: as above
T2 construct: also called pSos-ARA70; pSos-APA70
T2 sequence (looked up): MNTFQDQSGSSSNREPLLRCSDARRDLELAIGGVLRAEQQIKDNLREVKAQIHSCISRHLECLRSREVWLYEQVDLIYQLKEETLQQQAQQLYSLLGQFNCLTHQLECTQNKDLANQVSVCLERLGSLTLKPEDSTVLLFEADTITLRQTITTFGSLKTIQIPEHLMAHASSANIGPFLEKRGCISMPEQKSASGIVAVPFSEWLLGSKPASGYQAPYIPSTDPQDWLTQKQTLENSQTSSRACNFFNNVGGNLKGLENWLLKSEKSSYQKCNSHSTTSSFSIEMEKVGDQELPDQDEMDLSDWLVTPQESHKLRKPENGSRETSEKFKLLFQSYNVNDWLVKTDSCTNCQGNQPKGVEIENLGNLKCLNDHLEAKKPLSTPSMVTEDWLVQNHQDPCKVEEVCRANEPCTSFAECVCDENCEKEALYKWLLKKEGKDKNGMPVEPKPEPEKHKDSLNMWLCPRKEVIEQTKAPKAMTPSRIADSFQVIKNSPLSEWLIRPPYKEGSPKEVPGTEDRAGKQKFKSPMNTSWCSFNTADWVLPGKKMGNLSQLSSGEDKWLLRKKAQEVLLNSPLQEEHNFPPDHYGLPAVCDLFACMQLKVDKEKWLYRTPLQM
Description: as §1

binding result [1]: no binding
binding result (ARA70): no binding
B1: ARA67 clone of the CytoTrap screen, amino acids 20-585 of PAT1 (pMyr-ARA67) (other)
chain: AVVDNYIRSRRDIRSLPENIQFDVYYKLYQQGRLCQLGSEFCELEVFAKVLRALDKRHLLHHCFQALMDHGVKVASVLAYSFSRRCSYIAESDAAVKEKAIQVGFVLGGFLSDAGWYSDAEKVFLSCLQLCTLHDEMLHWFRAVECCVRLLHVRNGNCKYHLGEETFKLAQTYMDKLSKHGQQANKAALYGELCALLFAKSHYDEAYKWCIEAMKEITAGLPVKVVVDVLRQASKACVVKREFKKAEQLIKHAVYLARDHFGSKHPKYSDTLLDYGFYLLNVDNICQSVAIYQAALDIRQSVFGGKNIHVATAHEDLAYSSYVHQYSSGKFDNALFHAERAIGIITHILPEDHLLLASSKRVKALILEEIAIDCHNKETEQRLLQEAHDLHLSSLQLAKKAFGEFNVQTAKHYGNLGRLYQSMRKFKEAEEMHIKAIQIKEQLLGQEDYEVALSVGHLASLYNYDMNQYENAEKLYLRSIAIGKKLFGEGYSGLEYDYRGLIKLYNSIGNYEKVFEYHNVLSNWNRLRDRQYSVTDALEDVSTSPQSTEEVVQSFLISQNVEGPSC
notes: The clone matched the DNA encoding aa 20-585 of PAT1 at 99.6% identity; also called pMyr-ARA67/PAT1
